{"source": "paper PMC12990809", "assay_in_all_cases": "pulldown", "key": {"[1]": {"biological_target": "T1, pab-1 (Caenorhabditis elegans) (UniProt Q9U302)", "T1 sequence": "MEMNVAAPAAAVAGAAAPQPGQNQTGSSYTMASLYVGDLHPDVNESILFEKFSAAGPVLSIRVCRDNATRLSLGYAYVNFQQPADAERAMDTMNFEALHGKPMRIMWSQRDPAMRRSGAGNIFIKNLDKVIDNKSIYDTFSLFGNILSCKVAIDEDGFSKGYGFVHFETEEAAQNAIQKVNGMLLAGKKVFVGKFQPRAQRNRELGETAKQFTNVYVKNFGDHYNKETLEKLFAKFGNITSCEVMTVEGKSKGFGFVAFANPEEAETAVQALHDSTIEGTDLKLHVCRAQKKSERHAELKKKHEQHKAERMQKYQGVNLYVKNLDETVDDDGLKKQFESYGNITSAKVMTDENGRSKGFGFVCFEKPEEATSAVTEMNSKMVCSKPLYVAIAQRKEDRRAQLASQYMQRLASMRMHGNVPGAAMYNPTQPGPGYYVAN", "details": "20 nM protein, 1.5 uM RNA pool; 20 mM HEPES pH 7.8, 70 mM KCl, 10 mM NaCl, 10% glycerol, 2 mM DTT, 0.1 ug/uL BSA; 30 min, 4 C"}, "[2]": {"biological_target": "T2, C44B7.2 (Caenorhabditis elegans) (UniProt Q95QR5)", "T2 sequence": "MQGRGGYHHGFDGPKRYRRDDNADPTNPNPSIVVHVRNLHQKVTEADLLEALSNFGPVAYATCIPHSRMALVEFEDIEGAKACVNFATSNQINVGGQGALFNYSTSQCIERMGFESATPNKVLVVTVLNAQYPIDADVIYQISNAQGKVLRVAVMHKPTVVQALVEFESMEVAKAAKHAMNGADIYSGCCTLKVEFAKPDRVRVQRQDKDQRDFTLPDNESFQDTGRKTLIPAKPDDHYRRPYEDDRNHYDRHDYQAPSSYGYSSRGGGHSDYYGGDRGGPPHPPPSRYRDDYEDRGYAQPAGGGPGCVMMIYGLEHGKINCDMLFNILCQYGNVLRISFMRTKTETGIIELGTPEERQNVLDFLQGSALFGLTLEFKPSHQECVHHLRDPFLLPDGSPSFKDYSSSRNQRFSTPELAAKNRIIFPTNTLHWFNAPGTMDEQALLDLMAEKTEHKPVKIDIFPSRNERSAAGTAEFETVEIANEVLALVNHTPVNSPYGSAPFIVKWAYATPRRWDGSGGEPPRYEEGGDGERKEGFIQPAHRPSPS", "details": "20 nM protein, 1.5 uM RNA pool; 20 mM HEPES pH 7.8, 70 mM KCl, 10 mM NaCl, 10% glycerol, 2 mM DTT, 0.1 ug/uL BSA; 30 min, 4 C"}, "[3]": {"biological_target": "T3, PK16782.1 E6F;T7E (Cannabis sativa) (UniProt A0A7J6H871)", "T3 sequence": "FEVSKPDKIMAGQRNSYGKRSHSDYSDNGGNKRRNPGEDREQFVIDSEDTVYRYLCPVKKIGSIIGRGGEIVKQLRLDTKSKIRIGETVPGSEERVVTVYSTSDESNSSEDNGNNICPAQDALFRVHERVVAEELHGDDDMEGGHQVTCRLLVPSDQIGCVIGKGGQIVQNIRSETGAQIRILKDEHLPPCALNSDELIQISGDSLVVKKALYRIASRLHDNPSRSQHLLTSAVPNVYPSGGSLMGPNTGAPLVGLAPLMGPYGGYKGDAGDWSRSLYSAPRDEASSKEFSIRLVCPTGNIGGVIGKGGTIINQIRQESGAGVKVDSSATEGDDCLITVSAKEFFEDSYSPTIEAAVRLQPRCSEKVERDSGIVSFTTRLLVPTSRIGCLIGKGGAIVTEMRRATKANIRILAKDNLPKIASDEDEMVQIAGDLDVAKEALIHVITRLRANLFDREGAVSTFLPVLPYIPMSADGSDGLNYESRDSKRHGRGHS", "details": "20 nM protein, 1.5 uM RNA pool; 20 mM HEPES pH 7.8, 70 mM KCl, 10 mM NaCl, 10% glycerol, 2 mM DTT, 0.1 ug/uL BSA; 30 min, 4 C"}, "[4]": {"biological_target": "fmr1 (Xenopus tropicalis) (UniProt Q6GLC9)", "sequence (Q6GLC9 170-401)": "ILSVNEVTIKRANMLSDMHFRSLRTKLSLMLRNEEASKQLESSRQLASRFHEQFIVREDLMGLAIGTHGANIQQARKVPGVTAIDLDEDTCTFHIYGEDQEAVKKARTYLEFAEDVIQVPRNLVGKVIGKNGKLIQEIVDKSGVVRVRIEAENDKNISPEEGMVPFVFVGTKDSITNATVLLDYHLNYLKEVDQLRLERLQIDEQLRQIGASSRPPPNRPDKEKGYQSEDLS", "details": "20 nM protein, 1.5 uM RNA pool; 20 mM HEPES pH 7.8, 70 mM KCl, 10 mM NaCl, 10% glycerol, 2 mM DTT, 0.1 ug/uL BSA; 30 min, 4 C"}, "[5]": {"biological_target": "T4, HNRNPL C396G (Homo sapiens) (UniProt P14866)", "T4 sequence": "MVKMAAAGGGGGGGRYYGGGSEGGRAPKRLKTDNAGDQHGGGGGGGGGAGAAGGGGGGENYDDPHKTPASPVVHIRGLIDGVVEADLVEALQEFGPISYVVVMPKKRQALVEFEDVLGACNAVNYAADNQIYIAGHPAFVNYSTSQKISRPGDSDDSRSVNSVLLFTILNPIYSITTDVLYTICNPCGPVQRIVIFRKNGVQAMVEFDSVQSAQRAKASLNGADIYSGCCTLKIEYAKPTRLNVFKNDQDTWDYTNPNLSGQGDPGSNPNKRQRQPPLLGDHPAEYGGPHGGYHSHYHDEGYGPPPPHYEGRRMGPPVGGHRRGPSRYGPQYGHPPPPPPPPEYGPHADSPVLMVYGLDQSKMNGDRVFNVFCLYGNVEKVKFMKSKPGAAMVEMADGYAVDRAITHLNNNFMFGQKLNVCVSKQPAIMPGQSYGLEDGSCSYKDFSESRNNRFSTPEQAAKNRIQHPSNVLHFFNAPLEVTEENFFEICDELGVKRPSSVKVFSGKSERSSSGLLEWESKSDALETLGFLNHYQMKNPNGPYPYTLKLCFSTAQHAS", "details": "20 nM protein, 1.5 uM RNA pool; 20 mM HEPES pH 7.8, 70 mM KCl, 10 mM NaCl, 10% glycerol, 2 mM DTT, 0.1 ug/uL BSA; 30 min, 4 C (protocol of this paper; not …); cited from earlier work"}, "[6]": {"tested_on": "T5, PK23097.1 (Cannabis sativa)", "T5 sequence": "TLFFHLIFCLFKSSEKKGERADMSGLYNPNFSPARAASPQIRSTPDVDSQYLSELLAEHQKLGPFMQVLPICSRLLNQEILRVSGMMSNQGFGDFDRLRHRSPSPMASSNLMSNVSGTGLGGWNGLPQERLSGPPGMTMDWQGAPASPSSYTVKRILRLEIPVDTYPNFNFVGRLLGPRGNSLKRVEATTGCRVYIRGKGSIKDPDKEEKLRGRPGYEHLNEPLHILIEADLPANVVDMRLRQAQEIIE", "details": "20 nM protein, 1.5 uM RNA pool; 20 mM HEPES pH 7.8, 70 mM KCl, 10 mM NaCl, 10% glycerol, 2 mM DTT, 0.1 ug/uL BSA; 30 min, 4 C"}, "[7]": {"biological_target": "T6, B0280.17 (Caenorhabditis elegans) (UniProt Q2V4X2)", "T6 sequence": "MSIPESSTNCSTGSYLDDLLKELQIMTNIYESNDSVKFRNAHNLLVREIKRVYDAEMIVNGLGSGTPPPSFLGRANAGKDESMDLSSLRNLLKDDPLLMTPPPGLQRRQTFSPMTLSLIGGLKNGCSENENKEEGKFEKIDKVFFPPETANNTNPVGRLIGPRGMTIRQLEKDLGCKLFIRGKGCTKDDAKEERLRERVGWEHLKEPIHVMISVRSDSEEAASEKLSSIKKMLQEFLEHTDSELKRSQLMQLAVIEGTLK", "details": "20 nM protein, 1.5 uM RNA pool; 20 mM HEPES pH 7.8, 70 mM KCl, 10 mM NaCl, 10% glycerol, 2 mM DTT, 0.1 ug/uL BSA; 30 min, 4 C"}}, "data": [{"substance": "AAAAAA [RNAcompete motif RNCMPT00471]", "values": [{"measurement": "binding signal (z-score (mean of top ten 7-mers))", "setting": "[1]", "result": 12.5}]}, {"substance": "AACANA [RNAcompete motif RNCMPT00468]", "values": [{"measurement": "binding signal (z-score (mean of top ten 7-mers))", "setting": "[2]", "result": 8.36}]}, {"substance": "AACCAAA [RNAcompete motif RNCMPT00460]", "values": [{"measurement": "binding signal (z-score (mean of top ten 7-mers))", "setting": "[3]", "result": 8.43}]}, {"substance": "AAGACAA [RNAcompete motif RNCMPT00474]", "values": [{"measurement": "binding signal (z-score (mean of top ten 7-mers))", "setting": "[4]", "result": 6.01}]}, {"substance": "ACACACAA [RNAcompete motif RNCMPT00027]", "values": [{"measurement": "binding signal (z-score (mean of top ten 7-mers))", "setting": "[5]", "result": 8.6}]}, {"substance": "ACUAAC [RNAcompete motif RNCMPT00465]", "values": [{"measurement": "binding signal (z-score (mean of top ten 7-mers))", "setting": "[6]", "result": 12.4}]}, {"substance": "ACUAACA [RNAcompete motif RNCMPT00467]", "values": [{"measurement": "binding signal (z-score (mean of top ten 7-mers))", "setting": "[7]", "result": 10.4}]}]}
